Test results taken from US20150246947A1 (BAXALTA, published 2015).

What was measured:
human Protein S [1] = biological target: T1, human Protein S (human, UniProt P07225 42-676); assay: Biacore (SPR), Protein S immobilized, 37 °C
T1 construct: Called 'full length Protein S' / 'human full-length Protein S'; It was coated on plates (ELISA), Eu-labeled (LANCE) or immobilized on a chip (Biacore); also called PS; full length Protein S
T1 sequence: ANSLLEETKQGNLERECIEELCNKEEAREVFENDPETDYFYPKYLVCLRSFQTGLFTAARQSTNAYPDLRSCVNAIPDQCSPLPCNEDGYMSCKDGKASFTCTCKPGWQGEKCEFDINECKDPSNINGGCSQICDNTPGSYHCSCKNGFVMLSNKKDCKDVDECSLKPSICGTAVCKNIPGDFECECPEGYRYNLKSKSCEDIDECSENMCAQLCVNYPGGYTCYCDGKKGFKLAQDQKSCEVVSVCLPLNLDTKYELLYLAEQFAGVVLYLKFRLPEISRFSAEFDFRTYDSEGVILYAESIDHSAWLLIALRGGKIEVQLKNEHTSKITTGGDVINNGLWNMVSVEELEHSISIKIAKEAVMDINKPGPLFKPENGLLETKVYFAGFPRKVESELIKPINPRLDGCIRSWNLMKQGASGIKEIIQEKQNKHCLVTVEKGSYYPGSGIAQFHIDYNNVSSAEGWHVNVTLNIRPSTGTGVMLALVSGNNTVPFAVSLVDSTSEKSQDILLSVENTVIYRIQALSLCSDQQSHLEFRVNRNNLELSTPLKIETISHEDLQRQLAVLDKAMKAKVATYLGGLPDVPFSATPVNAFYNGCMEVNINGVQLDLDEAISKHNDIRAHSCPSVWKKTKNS
Method: Protein S affinity also was determined via Biacore (Biacore 3000 or Biacore T200) using human full-length Protein S and human GAS6. Briefly, 1000 RU of Protein S or GAS6 were immobilized on a CMS chip. In order to probe the kinetics of Protein S binding peptides to Protein S, the peptides were injected at various concentrations in a HBS-buffer containing 3 mM CaCl₂ and 1% DMSO to the flow cell and allowed to interact with the immobilized proteins on the sensor chip. The chip could be regenerated with 4 M MgCl₂ in HBS-buffer. Sensorgrams were fitted to a Langmuir binding model for the determination of kₒₙ and koff and the calculation of KD. Peptides were tested on their specificity to Protein S with peptide binding studies on the anti-target GAS6.

human Protein S [2] = biological target: T1, human Protein S; assay: LANCE TR-FRET; peptide added to preformed C4BP/Protein S complex; competitor C4BP
Method: To investigate the effect of the peptides described herein on PS/C4BP complexes, a LANCE IC50 assay was established using methods similar to those described above. JBS2572 or JBS3216 was added to a preformed C4BP/PS complex. Changes in the complex concentration were followed by recording the TR-FRET signal. For both peptides, a time- and concentration-dependent dissociation of the C4BP/PS complex was observed. […] The time-dependency of the complex reduction was similar for both peptides. After two hours of incubation in the presence of 100 nM JBS2572 or JBS3216, the C4BP/PS complex was reduced to 60% and 50%, respectively. In addition, binding of biotinylated JBS2572 to Protein S was inhibited by C4BP in the LANCE IC50 assay. Pull-down experiments where JBS2697 was coupled to streptavidin sepharose and incubated for one hour at room temperature with (a) Protein S (1.6 pmol) (b) C4BP (8.5 pmol) and (c) Protein S (1.6 pmol)+C4BP (8.5 pmol) supported the results from the modified LANCE IC50 assay. JBS2697 interacted with free Protein S only from experiment (a) with Protein S alone and from experiment (c) with the C4BP-Protein S mixture.

human Protein S [3] = biological target: T1, human Protein S; assay: cell-based or functional assay
human Protein S [4] = biological target: T1, human Protein S; assay: LANCE TR-FRET competition; Eu-labeled Protein S; competitor tracer JBS0684
Method: Peptides also were characterized in a competition, homogenous europium-based TR-FRET assay (LANCE IC50 assay) using JBS0684 as a tracer (i.e., competitor for Protein S binding). The following reagents were mixed together in a Perkin-Elmer ProxiPlate MTP well (indicated concentration is the final concentration): Eu-labeled Protein S (10 nM), Ulight™-labeled Streptavidin (100 nM), tracer (JBS0684 (300 nM)), and peptide (titrated in three-fold dilution steps). The final volume was 50 μl/well. The reaction mix was incubated for 1 hour at room temperature, then the fluorescence emission at 665 nm was recorded on a multi-mode reader (SpectraMax® M5, Molecular Devices) using the following instrument settings: Ex 340 nm, Em 665 nm, delay 50 μsec, integration 100 μsec, reads 100. Binding of tracer peptides to soluble europium-labeled Protein S was detected by Streptavidin labeled with an acceptor fluorophor (ULight™). Inhibition of tracer-binding to Protein S by a non-biotinylated peptide results in a decrease of TR-FRET between the Eu-labeled Protein S and ULight™-labeled Streptavidin. IC50 values were obtained from peptide titration curves at constant tracer concentration using non-linear regression of the fluorescence emission signals at 665 nm.
Several peptides having multiple substitutions in the JBS2572 amino acid sequence were synthesized and evaluated using LANCE IC50 and CAT assays described above. For the assays, pooled normal plasma was supplemented with 3 nM APC and triggered with 6 pM TF, and 15 μM phospholipids (DOPC/POPS 80/20). Stock APC was diluted with TF-PL-MIX to 24 nM (plasma concentration: 3 nM).

- Kd (human Protein S [1]): 3.8 nM
- koff (human Protein S [1]): 0.00431 s⁻¹
- kon (human Protein S [1]): 1.14e+06 M⁻¹ s⁻¹
- IC50 (human Protein S [2]): 2 nM
- CAT EC50 (human Protein S [3]): 151 nM
- IC50 (human Protein S [4]): 9.7 nM
Binder: Ac-TGLVSAGWYDYNFDHYREFT-NH2 (also called parent peptide JBS2572) [JBS2572]
